Laboratory results published in US20240254223A1 (NOVIMMUNE, published 2024).
Each block holds one binder with its values, some of them ahead of it.

How the values were obtained:
[1] = biological target: T1, CD47 at the surface of Peak cells (human, UniProt Q08722 19-323); assay: flow cytometry, Peak cells
T1 construct: whole, on cells; also called cell surface CD47
Experimental: (§1) Binding activity of antibody-cytokine/receptor fusions before and after cleavage was also evaluated by flow cytometry. Peak cells derived from HEK 293 which are human cells expressing CD47 were used to evaluate masking efficacy and binding recovery to CD47 by flow cytometry. Peak cells were diluted in cold FACS buffer (PBS, 2% BSA) to 1.2×10⁶ cells/mL. 3×10⁵ cells/well were added in a 96 well V-bottom plate. The plate was then centrifugated for 5 min at 1300 rpm, 4° C. Supernatants were removed and cells were washed twice using FACS buffer. A serial dilution of antibody-cytokine/receptor fusions previously digested with MMP-9 or not digested as described above was prepared in FACS buffer. An irrelevant antibody was included. Then, 150 μL of each diluted antibody were added in corresponding well and incubated for 30 min at 4° C. Cells were washed twice with FACS buffer and 100 μL of a mouse anti human Fc-PE conjugated secondary antibody were added and the plate was incubated for 20 min at 4° C. Cells were then washed twice with FACS buffer. Finally, 150 μL of SYTOX blue dead cell stain (ThermoFisher) diluted to 1/5000 in FACS buffer were added before detection by flow cytometry with Cytoflex (Beckman Coulter). Acquisition was performed with 10000 events for each well. Data were analyzed by FlowJo software.

His-tagged human CD47 = biological target: T2, His-tagged human CD47 (human, UniProt Q08722 19-139, limits assumed); assay: BLI, His-CD47 on HIS1K sensor, antibody 15 µg/mL
T2 construct: loaded on HIS1K biosensors at 2.5 µg/mL; also called target antigen; not shown: His tag
Experimental: The capacity of the masking domains to inhibit binding activity of the antibody was evaluated by Bio-Layer Interferometry (BLI). […] Binding experiments were performed to evaluate the masking efficiency and the binding recovery after cleavage of the masking domains. BLI was performed on an Octet RED96 system (Sartorius). His-tagged human CD47 was diluted at 2.5 μg/mL in Kinetic Buffer (KB) (Sartorius) and loaded on HIS1K biosensors (anti-His tag antibody biosensors, Sartorius) for 300 seconds. Loaded biosensors were dipped into antibodies diluted at 15 μg/mL in KB for 300 seconds to monitor association. Then, biosensors were transferred in KB for dissociation for 60 seconds. Binding profiles were then analyzed with ForteBio Data Analysis software.

[2] = biological target: T3, low-moderate affinity dimeric IL-2R (IL-2Rβ and IL-2Rγ) on HEK-Blue CD122/CD132 cells (UniProt P14784 27-551; P31785 23-369, limits assumed); assay: cell-based or functional assay
T3 sequence (looked up) 1: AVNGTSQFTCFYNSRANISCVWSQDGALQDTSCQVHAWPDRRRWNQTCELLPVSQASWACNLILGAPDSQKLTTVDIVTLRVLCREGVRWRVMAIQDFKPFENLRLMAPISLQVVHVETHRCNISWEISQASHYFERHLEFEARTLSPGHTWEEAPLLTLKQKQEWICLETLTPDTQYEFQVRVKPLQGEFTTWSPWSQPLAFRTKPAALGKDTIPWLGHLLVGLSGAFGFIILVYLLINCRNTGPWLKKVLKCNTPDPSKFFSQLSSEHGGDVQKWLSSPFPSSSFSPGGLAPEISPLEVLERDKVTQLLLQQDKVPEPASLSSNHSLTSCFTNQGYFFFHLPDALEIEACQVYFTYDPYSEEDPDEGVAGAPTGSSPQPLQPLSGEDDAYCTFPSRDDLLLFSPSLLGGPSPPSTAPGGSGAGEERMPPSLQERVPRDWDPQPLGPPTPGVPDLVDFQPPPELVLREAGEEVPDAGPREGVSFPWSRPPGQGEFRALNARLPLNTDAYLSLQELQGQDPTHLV
T3 sequence (looked up) 2: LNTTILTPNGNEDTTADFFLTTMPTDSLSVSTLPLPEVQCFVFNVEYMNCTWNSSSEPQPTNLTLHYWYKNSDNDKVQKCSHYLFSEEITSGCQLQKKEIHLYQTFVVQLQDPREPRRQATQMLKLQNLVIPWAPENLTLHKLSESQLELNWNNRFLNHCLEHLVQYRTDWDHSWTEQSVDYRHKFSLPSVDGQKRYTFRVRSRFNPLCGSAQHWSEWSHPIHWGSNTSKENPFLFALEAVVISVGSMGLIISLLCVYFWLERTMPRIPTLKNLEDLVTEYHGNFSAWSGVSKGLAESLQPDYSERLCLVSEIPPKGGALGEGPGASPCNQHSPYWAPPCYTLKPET

[3] = biological target: T1, CD47 at the surface of Peak cells; assay: flow cytometry, Peak cells, before cleavage
Experimental: as §1

[4] = biological target: T4, high affinity trimeric IL-2R (IL-2Rα, IL-2Rβ and IL-2Rγ) on HEK-Blue IL-2 cells (UniProt P01589 22-272; P14784 27-551; P31785 23-369); assay: cell-based or functional assay
T4 sequence (looked up) 1: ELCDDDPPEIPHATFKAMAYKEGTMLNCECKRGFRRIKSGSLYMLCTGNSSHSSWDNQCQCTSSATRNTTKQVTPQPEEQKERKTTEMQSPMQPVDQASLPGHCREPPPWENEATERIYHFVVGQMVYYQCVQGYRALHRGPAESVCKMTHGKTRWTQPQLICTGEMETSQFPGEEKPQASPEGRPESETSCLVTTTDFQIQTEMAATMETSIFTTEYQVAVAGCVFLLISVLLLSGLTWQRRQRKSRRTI
T4 sequence (looked up) 2: T3 sequence (looked up) 1
T4 sequence (looked up) 3: T3 sequence (looked up) 2

[5] = biological target: T1, CD47 at the surface of Peak cells; assay: flow cytometry, Peak cells; EC50 before / EC50 after cleavage
Experimental: as §1

B1: pNOVI V2K K91 (antibody, human IgG1, kappa)
light: DIQMTQSPSSLSASVGDRVTITCNVDQVIANWLNWYQQKPGKAPKLLIYAASSLQSGVPSRFSGSGSGTDFTLTISSLQPEDFATYYCQQMHPRAPKQFGQGTKVEIKRTVAAPSVFIFPPSDEQLKSGTASVVCLLNNFYPREAKVQWKVDNALQSGNSQESVTEQDSKDSTYSLSSTLTLSKADYEKHKVYACEVTHQGLSSPVTKSFNRGEC
heavy: not shown
notes: also called n46; construct No 46
EC50 [1]: 0.062 nM
Binding before cleavage (BLI) (His-tagged human CD47): 1.8 nm

B2: pNOVI V2K K91_IL-2 CM1_CM2_VHCH (antibody, human IgG1, kappa)
light: B1 light
heavy: not shown
notes: masked K91 fusion, uncleaved; also called n17; construct No 17
Binding before cleavage (BLI) (His-tagged human CD47): 2.2 nm

B3: pNOVI V2K K91_IL15_CM1_VHCH (antibody)
light: B1 light
heavy: not shown
notes: masked K91 fusion, uncleaved; 49% aggregates; also called n111; construct No 111
Binding before cleavage (BLI) (His-tagged human CD47): 1.5 nm

B6: pNOVI V2K K91_IL-2Rα CM1_VKCK_IL-2_CM1_VHCH (antibody, human IgG1, kappa)
light: ELCDDDPPEIPHATFKAMAYKEGTMLNCECKRGFRRIKSGSLYMLCTGNSSHSSWDNQCQCTSSATRNTTKQVTPQPEEQKERKTTEMQSPMQPVDQASLPGHCREPPPWENEATERIYHFVVGQMVYYQCVQGYRALHRGPAESVCKMTHGKTRWTQPQLICTGEMETSQFPGEEKPQASPEGRPESETSCLVTTTDFQIQTEMAATMETSIFTTEGGGGSVHMPLGFLGPGGSDIQMTQSPSSLSASVGDRVTITCNVDQVIANWLNWYQQKPGKAPKLLIYAASSLQSGVPSRFSGSGSGTDFTLTISSLQPEDFATYYCQQMHPRAPKQFGQGTKVEIKRTVAAPSVFIFPPSDEQLKSGTASVVCLLNNFYPREAKVQWKVDNALQSGNSQESVTEQDSKDSTYSLSSTLTLSKADYEKHKVYACEVTHQGLSSPVTKSFNRGEC
heavy: not shown
notes: masked K91 fusion, uncleaved; also called n690; construct No 690
EC50 before cleavage IL-2, HEK Blue IL-2 βγ reporter assay [2]: 0.12 nM
EC50 ratio (BC/AC), HEK Blue IL-2 βγ reporter assay [2]: 4
EC50 [3]: 8.7 nM
EC50 before cleavage IL-2, HEK Blue IL-2 αβγ reporter assay [4]: 0.07 nM
EC50 ratio (BC/AC), HEK Blue IL-2 αβγ reporter assay [4]: 1
Binding before cleavage (BLI) (His-tagged human CD47): 1.2 nm
Binding recovery (BC/AC) [5]: 20

Now from value to binder:

Binding before cleavage (BLI) (His-tagged human CD47): 2.3 nm
B4: pNOVI V2K K91_IL-2 CM1_VHCH (antibody, human IgG1, kappa)
light: B1 light
heavy: not shown
notes: masked K91 fusion, uncleaved; also called n13; construct No 13

Binding before cleavage (BLI) (His-tagged human CD47): 1.3 nm
B5: pNOVI V2K K33 (antibody, human IgG1, kappa)
light: DIQMTQSPSSLSASVGDRVTITCRASQSISSYLNWYQQKPGKAPKLLIYAASSLQSGVPSRFSGSGSGTDFTLTISSLQPEDFATYYCQQFHKRSPQKFGQGTKVEIKRTVAAPSVFIFPPSDEQLKSGTASVVCLLNNFYPREAKVQWKVDNALQSGNSQESVTEQDSKDSTYSLSSTLTLSKADYEKHKVYACEVTHQGLSSPVTKSFNRGEC
heavy: not shown
notes: also called n22; construct No 22
